Source: patent publication US10000771B2, “Nuclear targeting sequences” (Yeda Research and Development Co. Ltd., priority 2007, dated 2018)

Experiments:
[1] = target: T1, importin-7 (Homo sapiens, UniProt O95373); assay: Coimmunoprecipitation with importin-7; type: binding; conditions: HeLa cells, coimmunoprecipitation with anti GFP Ab, with or without stimulation
T1 construct: endogenous in cells; host or cells: HeLa
Procedure: FIGS. 19A-19C are autoradiographs illustrating that phospho-SPS interacts with importin-7 and releases Nup153c binding without involvment of importin-β. […]. Interaction of ERK2 with Importin-7 is enhanced by EGF stimulation and EPE mutation. HeLa cells overexpressing WT-ERK (WT), ERK-APA (APA), ERK-EPE (EPE) or GFP were serum starved and treated with EGF (50 ng/ml, 10 min). The extracts of the treated cells were then subjected to coimmunoprecipitation using A/G beads pre-conjugated with anti GFP Ab and mild washes. The coimmunoprecipitated importin-7 (first panel) and importin-β (third panel), as well as their loading amounts (panels 2 and 4 respectively) were determined by WB using anti importin-7 (αImp7) and importin-β (αImpβ) Abs. The equal amount of immunoprecipitated ERKs was determined with anti GFP (αGFP; IP) Ab. FIG. 19B. Interaction of 2GFP-SPS and its mutants with importin-7. HeLa cells overexpressing 2GFP, 2GFP-SPS, 2GFP-APA and 2GFP-EPE constructs were subjected to coimmunoprecipitation as described in FIG. 19A (without EGF stimulation). FIG. 19C. Interaction of NUP153 with WTERK2 and its APA and EPE mutants. NUP153c is elevated in APA-ERK2, but reduced in EPE-ERK2. Immunoprecipitated and stringently washed WT-ERK2 (WT), APA-ERK2 (APA) or ERK2 from […] cells pre-treated with or without TPA (250 nM, 15 min) were incubated with 0.5 μg recombinant His-Nup153c. […]

[2] = target: T2, Act-GST-ERK2 (Rattus norvegicus, UniProt P63086); assay: In vitro kinase assay with active GST-ERK2; type: biochemical; conditions: immunoprecipitated protein as substrate, relative to GFP-ERK2
T2 construct: made in house; host or cells: bacteria co-expressing active MEK1
T2 sequence (P63086 whole entry): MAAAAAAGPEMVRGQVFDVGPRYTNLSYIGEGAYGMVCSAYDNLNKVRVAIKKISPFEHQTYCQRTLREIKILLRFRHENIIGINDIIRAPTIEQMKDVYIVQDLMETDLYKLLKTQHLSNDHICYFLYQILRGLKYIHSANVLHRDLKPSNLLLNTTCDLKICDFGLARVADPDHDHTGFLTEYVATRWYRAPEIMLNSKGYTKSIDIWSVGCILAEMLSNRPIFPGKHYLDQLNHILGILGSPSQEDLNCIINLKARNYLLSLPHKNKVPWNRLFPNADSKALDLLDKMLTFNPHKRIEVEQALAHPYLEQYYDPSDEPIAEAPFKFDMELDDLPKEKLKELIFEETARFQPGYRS
Procedure: FIGS. 4A-4I are autoradiographs characterizing SPS phosphorylation using an Ab to the phosphorylated SPS domain. FIG. 4A illustrates an elevation of pSPS detection upon stimulation. COS cells were transfected with WT-GFP-ERK2. Twenty-four hr after transfection, the cells were serum-starved for 16 hr and subsequently treated with the general stimulator VOOH (V, 100 μM Na3VO4 and 200 μM H2O2, 15 min), TPA (T, 250 nM, 15 min), EGF (E, 50 ng/ml for 15 min), or left untreated (NT). The GFP-ERK2 was immunoprecipitated with anti GFP Ab, extensively washed, and the IP was then subjected to Western blotting with anti phospho SPS-ERK (αphoSPS-ERK) and anti general ERK (αgen-ERK) Abs. FIG. 4B is a time course of SPS phosphorylation. […] SPS phosphorylation was detected using the anti pSPS Abs, and this was compared to the amount of genral ERKs detected by αgERK. […] SPS-phosphorylation was detected using αpSPS and αgERK Abs. […] The phosphorylation (^32P-ERK2) of ERK and its mutants was detected by autoradiography. […]
Some protein kinases downstream of MEKs that may be involved in the SPS phosphorylation are ERKs themselves (autophosphorylation) as their consensus phosphorylation site includes Ser/Thr followed by a Pro (Yoon and Seger, 2006, Growth Factors, 24, 21-44). […] As expected, ^32P incorporation to GFP-ERK2 was detected mainly when this protein was incubated with Act-ERK2. […]

T1 sequence (O95373 whole entry): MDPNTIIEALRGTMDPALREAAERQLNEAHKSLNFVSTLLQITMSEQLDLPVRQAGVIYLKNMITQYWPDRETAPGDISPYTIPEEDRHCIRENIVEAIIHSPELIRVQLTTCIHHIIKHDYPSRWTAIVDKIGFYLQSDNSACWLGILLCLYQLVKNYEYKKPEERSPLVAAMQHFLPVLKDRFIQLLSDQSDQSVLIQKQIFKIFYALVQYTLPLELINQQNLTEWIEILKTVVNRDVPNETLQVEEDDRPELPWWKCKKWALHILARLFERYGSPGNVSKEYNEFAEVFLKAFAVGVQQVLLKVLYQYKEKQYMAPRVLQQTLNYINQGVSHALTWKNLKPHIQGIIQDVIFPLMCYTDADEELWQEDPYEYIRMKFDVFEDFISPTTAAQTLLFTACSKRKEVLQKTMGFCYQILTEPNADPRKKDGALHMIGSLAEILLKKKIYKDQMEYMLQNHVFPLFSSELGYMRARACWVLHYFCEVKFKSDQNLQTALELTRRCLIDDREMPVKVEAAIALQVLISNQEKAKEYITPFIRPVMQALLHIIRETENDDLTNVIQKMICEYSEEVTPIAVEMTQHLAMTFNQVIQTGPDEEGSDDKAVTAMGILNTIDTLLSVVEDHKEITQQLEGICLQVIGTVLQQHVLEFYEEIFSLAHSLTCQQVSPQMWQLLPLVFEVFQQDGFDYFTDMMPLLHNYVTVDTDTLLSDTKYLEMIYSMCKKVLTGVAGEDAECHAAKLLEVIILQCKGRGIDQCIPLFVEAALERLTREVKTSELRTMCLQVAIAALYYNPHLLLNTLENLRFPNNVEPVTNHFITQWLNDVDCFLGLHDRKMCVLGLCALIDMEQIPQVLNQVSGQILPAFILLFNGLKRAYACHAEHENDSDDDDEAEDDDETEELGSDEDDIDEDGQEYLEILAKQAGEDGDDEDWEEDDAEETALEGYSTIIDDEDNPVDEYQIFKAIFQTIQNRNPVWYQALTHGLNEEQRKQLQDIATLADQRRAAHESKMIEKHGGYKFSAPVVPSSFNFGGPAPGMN

B1: APA-ERK2: GFP-ERK2 with the two Ser residues of the SPS sequence replaced by Ala (protein)
chain: MAAAAAAGPEMVRGQVFDVGPRYTNLSYIGEGAYGMVCSAYDNLNKVRVAIKKISPFEHQTYCQRTLREIKILLRFRHENIIGINDIIRAPTIEQMKDVYIVQDLMETDLYKLLKTQHLSNDHICYFLYQILRGLKYIHSANVLHRDLKPSNLLLNTTCDLKICDFGLARVADPDHDHTGFLTEYVATRWYRAPEIMLNSKGYTKSIDIWSVGCILAEMLSNRPIFPGKHYLDQLNHILGILGAPAQEDLNCIINLKARNYLLSLPHKNKVPWNRLFPNADSKALDLLDKMLTFNPHKRIEVEQALAHPYLEQYYDPSDEPIAEAPFKFDMELDDLPKEKLKELIFEETARFQPGYRS
modifications: left off: large carriers
interaction of ERK2 constructs with importin-7 [1]: reduced the interaction
reduction of phosphorylation (32P incorporation) by Act-ERK2 [2]: ~80%
